Test results from patent US20120253017A1.
Residue numbers refer to the chain shown, from its start. Blank lines part the entries; values can stand above or below the binder they belong to.

Experiments:
[1] = molecular target: mouse c-kit (recombinant, on BIAcore chip) (mouse) (UniProt P05532); experiment: BIAcore
[2] = molecular target: mouse c-kit (recombinant, on BIAcore chip) (mouse) (UniProt P05532); experiment: BIAcore 2000, 1 uM dAb
[3] = molecular target: human c-kit (recombinant, on BIAcore chip or beads) (human) (UniProt P10721); experiment: BIAcore
Chain of human c-kit (recombinant, on BIAcore chip or beads) (human) (P10721 26-524): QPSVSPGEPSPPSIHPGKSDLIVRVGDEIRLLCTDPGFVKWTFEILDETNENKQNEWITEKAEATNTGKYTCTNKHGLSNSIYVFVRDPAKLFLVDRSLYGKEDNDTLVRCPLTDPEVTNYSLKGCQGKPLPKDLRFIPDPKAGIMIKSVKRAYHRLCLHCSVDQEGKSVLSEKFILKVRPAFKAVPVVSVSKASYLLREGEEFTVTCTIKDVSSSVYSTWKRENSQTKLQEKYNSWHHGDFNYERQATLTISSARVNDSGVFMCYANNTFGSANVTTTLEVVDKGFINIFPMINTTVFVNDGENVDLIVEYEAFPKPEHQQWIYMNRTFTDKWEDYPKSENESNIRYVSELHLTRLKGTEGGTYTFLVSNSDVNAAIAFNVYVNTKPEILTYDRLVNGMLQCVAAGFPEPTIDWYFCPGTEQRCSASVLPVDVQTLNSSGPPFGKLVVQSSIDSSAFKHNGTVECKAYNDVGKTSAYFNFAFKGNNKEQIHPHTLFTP

[4] = molecular target: T1, Mouse cKIT ECD-Fc (mouse; human) (UniProt P05532); experiment: BIAcore
T1 sequence (looked up): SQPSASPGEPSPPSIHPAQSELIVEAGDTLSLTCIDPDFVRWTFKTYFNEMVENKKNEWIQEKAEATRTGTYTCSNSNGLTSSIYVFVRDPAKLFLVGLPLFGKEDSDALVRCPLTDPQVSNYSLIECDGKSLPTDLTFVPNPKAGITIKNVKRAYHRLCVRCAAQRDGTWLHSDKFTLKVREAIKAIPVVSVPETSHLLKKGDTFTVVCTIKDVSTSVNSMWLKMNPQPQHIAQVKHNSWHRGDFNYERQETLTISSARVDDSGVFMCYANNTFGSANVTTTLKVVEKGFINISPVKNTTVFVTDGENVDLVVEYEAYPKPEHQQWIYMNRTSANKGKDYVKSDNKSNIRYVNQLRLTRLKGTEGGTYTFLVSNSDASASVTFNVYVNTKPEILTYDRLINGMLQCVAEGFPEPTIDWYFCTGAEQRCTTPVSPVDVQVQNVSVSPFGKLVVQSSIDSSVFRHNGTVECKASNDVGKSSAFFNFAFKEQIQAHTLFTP

[5] = molecular target: mouse c-kit (recombinant, on BIAcore chip) (mouse) (UniProt P05532); experiment: BIAcore, c-kit on SA chip
[6] = molecular target: mouse c-kit (recombinant, on BIAcore chip) (mouse) (UniProt P05532); experiment: BIAcore, dAb at 1000 and 500 nM
[7] = molecular target: mouse c-kit (recombinant, on BIAcore chip) (mouse) (UniProt P05532); experiment: BIAcore, approximate kinetic constants

B1: DOM28m-7 (protein)
VH: EVQLLESGGGLVQPGGSLRLSCAASGFTFSNYAMGWVRQAPGKGLEWVSSISSSGFATYYADSVKGRFTISRDNSKNTLYLQMNSLRAEDTAVYYCAKSESRTFKAFDYWGQGTLVTVSS
Kd [1]: 3000 nM
Kd [2]: 4000 nM

B4: DOM28m-23 (protein)
VH: EVRLLESGGGLVQPGGSLRLSCAASGFTFRDYVMVWVRQAPGKGLEWVSAIAPTGGYTYYADSVKGRFTISRDNSKNTLYLQMNSLRAEDTAVYYCAKSLRTWLSEDLPFDYWGQGTLVTVSS
Kd [5]: 2800 nM
Kd [1]: 22000 nM
Kd [2]: 22000 nM

B5: DOM28h-94 (protein)
VH: EVQLLESGGGLVQPGGSLRLSCAASGFTFFPYAMGWVRQAPGKGLEWVSFISGRGDTTYYADSVKGRFTISRDNSKNTLYLQMNSLRAEDTAVYYCAKTATSDLWNFDYWGQGTLVTVSS
Kd [5]: 1500 nM
Kd [6]: 1500 nM

B8: DOM28m-73 (protein)
chain: EVQLLESGGGLVQPGGSLRLSCAASGFTFKHYSMNWVRQAPGKGLEWVSRISPSGVSTYYADSVKGRFTISRDNSKNTLYLQMNSLRAEDTAVYYCAKIMNSHKADEFDYWGQGTLVTVSS
Kd [1]: 9000 nM
Kd [2]: 9000 nM

Other lines, results leading:

Kd [1]: 80 nM
Kd [3]: 27 nM
Kd [4]: 36 nM
B2: DMS5052 (chimeric MLC mAb-cKIT dAb, DOM28m-007) (bispecific antibody, not shown: a dimerising Fc or GST)
heavy (part 1 of 2): QVQLQQSGAELASPGASVKLSCKASGYTFTTYWIHWVKQRPGQGLEWIGAIYPGDGDTRYTQNFKDKATLTADSSSSTAYMQLSSLASEDSAVFYCAREGTPPFTTATFAMAYWGQGTSVTVSS
heavy (part 2 of 2): STGEVQLLESGGGLVQPGGSLRLSCAASGFTFSNYAMGWVRQAPGKGLEWVSSISSSGFATYYADSVKGRFTISRDNSKNTLYLQMNSLRAEDTAVYYCAKSESRTFKAFDYWGQGTLVTVSS
light: DIVMSQSPSSLAVSAGDKVTMSCKSSQSLLYSRTRKNYLAWYQQKPGQSPKLLIYWASTRQSGVPDRFTGSGSGTDFTLTISSVQAEDLAVYYCKQSYNLFTFGSGTKLEIKR

Kd [1]: 14 nM
Kd [3]: 36 nM
Kd [4]: 13 nM
B3: DMS5060 (chimeric MLC mAb-cKIT dAb, DOM28h-094) (bispecific antibody, not shown: a dimerising Fc or GST)
heavy (part 1 of 2): B2 heavy (part 1 of 2)
heavy (part 2 of 2): STGEVQLLESGGGLVQPGGSLRLSCAASGFTFFPYAMGWVRQAPGKGLEWVSFISGRGDTTYYADSVKGRFTISRDNSKNTLYLQMNSLRAEDTAVYYCAKTATSDLWNFDYWGQGTLVTVSS
light: B2 light

Kd [7]: 11 nM
B6: DOM28h-94-12 (protein)
VH: B5 VH with L4P, A24V, F29V, W110R

Kd [7]: 112 nM
B7: DOM28h-94-10 (protein)
VH: B5 VH with F29V, W110R
